Results published in patent US20190071477A1.

Columns and labels:
C3b [1] = biological target: C3b (UniProt P01024); experiment: cell-based or functional assay
C3b [2] = biological target: C3b (UniProt P01024); experiment: ELISA on plates coated with C3b (5 ug/mL), detection with mouse anti-human CFH antibody and HRP goat anti-mouse, OD450

Sequence of hSCR (1-7)-mFc fusion protein (chain): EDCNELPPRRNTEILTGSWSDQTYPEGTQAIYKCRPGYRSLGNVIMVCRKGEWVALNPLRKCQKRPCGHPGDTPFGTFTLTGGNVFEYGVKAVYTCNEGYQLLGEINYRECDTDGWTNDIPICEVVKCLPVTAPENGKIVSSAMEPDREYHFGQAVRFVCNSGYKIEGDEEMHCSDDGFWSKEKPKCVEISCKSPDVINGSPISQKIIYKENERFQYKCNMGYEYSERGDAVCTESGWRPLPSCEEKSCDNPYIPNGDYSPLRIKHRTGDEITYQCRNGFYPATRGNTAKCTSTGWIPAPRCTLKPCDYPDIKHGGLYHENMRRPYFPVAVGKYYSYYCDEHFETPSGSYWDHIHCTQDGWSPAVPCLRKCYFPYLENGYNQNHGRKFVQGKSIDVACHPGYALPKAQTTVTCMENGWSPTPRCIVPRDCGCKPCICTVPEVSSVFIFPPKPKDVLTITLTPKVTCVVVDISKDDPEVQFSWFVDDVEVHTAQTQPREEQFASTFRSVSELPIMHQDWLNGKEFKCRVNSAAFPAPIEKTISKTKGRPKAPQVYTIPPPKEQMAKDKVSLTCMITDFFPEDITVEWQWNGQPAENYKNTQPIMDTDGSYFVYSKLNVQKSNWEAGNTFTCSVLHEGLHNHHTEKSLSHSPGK
Sequence of hSCR (1-7)-hSCR (18-20)-hFc fusion protein (P08603 other isoform, or with tags, fused parts or gaps limits assumed): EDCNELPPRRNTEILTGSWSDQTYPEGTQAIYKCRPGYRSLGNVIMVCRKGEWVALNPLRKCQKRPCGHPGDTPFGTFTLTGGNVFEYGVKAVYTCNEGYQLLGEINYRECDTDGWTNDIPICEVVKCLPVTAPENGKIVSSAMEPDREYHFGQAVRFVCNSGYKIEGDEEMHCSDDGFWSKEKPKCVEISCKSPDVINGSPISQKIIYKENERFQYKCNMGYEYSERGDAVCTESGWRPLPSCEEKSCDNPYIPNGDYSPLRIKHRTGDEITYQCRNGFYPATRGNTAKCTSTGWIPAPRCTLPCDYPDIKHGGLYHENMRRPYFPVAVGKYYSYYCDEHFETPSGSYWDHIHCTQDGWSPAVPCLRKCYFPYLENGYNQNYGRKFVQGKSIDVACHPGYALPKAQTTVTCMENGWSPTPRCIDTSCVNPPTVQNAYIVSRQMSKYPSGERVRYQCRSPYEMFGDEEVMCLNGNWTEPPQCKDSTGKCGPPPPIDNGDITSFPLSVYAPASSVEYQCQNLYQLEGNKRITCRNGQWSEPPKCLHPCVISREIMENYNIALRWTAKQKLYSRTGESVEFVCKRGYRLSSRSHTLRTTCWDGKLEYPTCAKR
Sequence of human CFH (complement Factor H) (P08603 19-1231 limits assumed): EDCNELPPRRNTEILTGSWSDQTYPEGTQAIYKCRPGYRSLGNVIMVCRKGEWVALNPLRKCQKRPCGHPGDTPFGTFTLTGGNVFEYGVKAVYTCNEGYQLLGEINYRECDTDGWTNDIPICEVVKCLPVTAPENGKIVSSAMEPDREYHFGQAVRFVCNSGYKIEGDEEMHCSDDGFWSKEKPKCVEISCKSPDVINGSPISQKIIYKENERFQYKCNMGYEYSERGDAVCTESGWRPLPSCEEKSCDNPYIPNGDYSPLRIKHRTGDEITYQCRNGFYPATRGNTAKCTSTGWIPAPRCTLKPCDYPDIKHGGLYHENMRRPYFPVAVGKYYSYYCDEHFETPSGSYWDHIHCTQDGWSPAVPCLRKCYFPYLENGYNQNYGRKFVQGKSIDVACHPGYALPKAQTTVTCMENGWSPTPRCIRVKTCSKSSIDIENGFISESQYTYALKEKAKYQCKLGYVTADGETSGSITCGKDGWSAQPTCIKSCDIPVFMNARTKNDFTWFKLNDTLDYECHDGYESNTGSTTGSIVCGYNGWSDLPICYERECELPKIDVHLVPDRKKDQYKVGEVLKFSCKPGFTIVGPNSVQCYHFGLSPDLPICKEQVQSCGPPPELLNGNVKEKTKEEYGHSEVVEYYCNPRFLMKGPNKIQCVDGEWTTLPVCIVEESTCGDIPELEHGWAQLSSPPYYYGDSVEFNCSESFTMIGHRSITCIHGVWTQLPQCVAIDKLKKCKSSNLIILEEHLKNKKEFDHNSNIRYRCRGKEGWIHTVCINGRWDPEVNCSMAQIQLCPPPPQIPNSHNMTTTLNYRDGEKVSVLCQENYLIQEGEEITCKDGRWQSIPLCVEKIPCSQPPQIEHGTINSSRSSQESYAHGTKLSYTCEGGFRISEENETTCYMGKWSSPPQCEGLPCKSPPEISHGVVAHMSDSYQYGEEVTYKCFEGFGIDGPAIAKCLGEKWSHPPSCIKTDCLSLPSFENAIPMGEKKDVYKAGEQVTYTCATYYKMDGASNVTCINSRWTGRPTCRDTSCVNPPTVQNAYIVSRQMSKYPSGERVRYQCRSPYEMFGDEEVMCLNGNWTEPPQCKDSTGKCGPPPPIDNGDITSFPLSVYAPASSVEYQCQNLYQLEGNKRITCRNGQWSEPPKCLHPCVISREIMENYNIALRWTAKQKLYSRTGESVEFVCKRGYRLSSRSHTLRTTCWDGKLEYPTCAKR

hSCR (1-7)-hFc fusion protein
IC50, inhibition of rabbit red blood cell hemolysis mediated by the alternative complement pathway (C3b [1]): 74 nM
hemolysis inhibiting activity relative to human CFH (C3b [1]): 5 times
EC50 (read off the curve) (C3b [2]): 30 nM

hSCR (1-7)-hSCR (18-20)-hFc fusion protein (from UniProt P08603 19-1231)
IC50, inhibition of rabbit red blood cell hemolysis mediated by the alternative complement pathway (C3b [1]): 330 nM

human CFH (complement Factor H) (from UniProt P08603 19-1231)
IC50, inhibition of rabbit red blood cell hemolysis mediated by the alternative complement pathway (C3b [1]): 370 nM

hSCR (1-7)-mFc fusion protein
IC50, inhibition of rabbit red blood cell hemolysis mediated by the alternative complement pathway (C3b [1]): 86 nM
EC50 (read off the curve) (C3b [2]): 30 nM
